The values below are quoted from earlier work in patent US20060188964A1, “Processing for producing and crystallizing G-protein coupled receptors” (priority 2004, published 2006).

This data set deals with insulin action in the liver. Conditions: mice; insulin clamp; recombinant protein from HEK-293T cells.

B1: resistin: mouse resistin, a highly disulfide-linked hormone naturally secreted from adipocytes; recombinant, hexameric (protein, UniProt Q99P87 21-114, looked up)
Resistin: SSMPLCPIDEAIDKKIKQDFNSLFPNAIKNIGLNCWTVSSRGKLASCPEGTAVLSCSCGSACGSWDIREEKVCHCQCARIDWTAARCCKLQVAS
Regarding B1, the “effect on insulin action” value is given as “potent antagonist of insulin action in the liver”.
